In patent US20240142454A1 (UNIVERSITY OF KENTUCKY RESEARCH FOUNDATION, published 2024):
Where no end group is shown, it is not given here.

B1: mouse monoclonal antibody 26A6 (antibody, mouse IgG2b, kappa, V domains shown)
VH: EVQLQQSGPVLVKPGASVKMSCKASGYTFTDFYLNWVKQSHGKTLEWIGVINPYNGITRYNQKFGGTATLTVDKSSSTAYMELNSLTSEDSAVYYCSRGGKTYYFDYWGQGTTLTVSP
VL: DVVMTQSPLSLPVSLGDQASISCRSSQSLVHSNGNTYLHWYLQKPGQSPKLLIYKVSNRFSGVPDRFSGSGSGTDFTLKINRVEAEDLGVYFCSQSTHVPPVTFGGGTKLEIKR
notes: used as hybridoma supernatant or Protein G-purified; also called 26A6 mAb; hybridoma ATCC PTA-126751
B2: immunizing peptide CGGGESVLTLK (peptide)
peptide: CGGGESVLTLK
modifications: also: conjugated to KLH for immunization
notes: Conjugated to KLH for immunization; also called peptide antigen; peptide ESVLTLK424

Tests used:
[1] = biological target: B2; test: ELISA on the immunizing peptide
Protocol: These mice were selected for further boosting and fusion with a Sp2/0 myeloma partner. The resulting hybridomas were screened first in ELISA assays to the immunizing peptide and secondly in Western blot assays to the uncleaved and cleaved CN, to confirm that they selectively bound the cleaved CN. A positive clone was identified-26A6. This clone was developed/subcloned further and characterized as to isotype. 26A6 is an IgG2b with a kappa light chain.
ELISA assays were carried out at GenScript. The immunizing peptide itself was bound to plates at a concentration of 1 μg/ml, 100 μl per well and supernatants from the hybridomas were used to bind to the peptide. An anti-IgG-HRP conjugated secondary antibody was used to detect the primary 26A6 antibody.

[2] = biological target: B1; test: competition in immunofluorescence of human brain sections
Protocol: Slides were baked in a 40° C. oven overnight, then deparaffinized using SafeClear (Fisher Scientific, Hampton, NH), and rehydrated through a series of alcohols and finally into PBS. Antigen retrieval was carried out in pressurized decloaking chamber (BioCare Medical, Concord, CA), according to manufacturer's directions using the Borg antigen retrieval solution (BioCare Medical, Concord, CA). Following antigen retrieval, slides were washed 3× in PBS. For sections designated for staining with the β-amyloid antibody downstream, the sections were treated with 70% formic acid for 5 mins, then washed. All sections were treated with 3% H₂O₂ in methanol to block endogenous […] activity. Slides were washed in PBS and sections were either stained for immunofluorescence or immunohistochemistry.
For immunofluorescence, sections were incubated in blocking solution (PBS with 3% bovine serum albumin, 5% goat serum, and 0.05% Triton X 100) for 30 minutes, and incubated overnight at room temperature in primary antibody in that same blocking solution. Primary antibodies used were: rabbit anti-GFAP (1:200; catalog #12389, Cell Signaling Technology, Danviers, MA) and mouse 26A6 hybridoma supernatants diluted 1:5 or 10 ug/ml of purified 26A6 antibody. Sometimes 75 μg/ml immunizing peptide was included with the 26A6 antibody as a negative control. […]

Row | binding result [1] | binding result [2] | Binder
1 | binds | – | B1
2 | – | binds | B2
